Measured values published in PMC10873324, “High-throughput screening assay for PARP-HPF1 interaction inhibitors to affect DNA damage repair” (Scientific Reports, 2024).

T1: YFP-HPF1 (mCitrine fused to the N-terminus of full length HPF1) (UniProt Q9NWY4 1-346)
T1 construct: Histone PARylation Factor 1 (HPF1), full length; The methods print 'His6 tag- CFP-TEV protease site followed by full length HPF1' for the YFP-tagged HPF1; This is probably a slip for YFP, since the vector is pNIC-YFP; also called Histone PARylation Factor; source: E. coli BL21(DE3), purified (Ni-NTA IMAC, SEC); not shown: mCitrine (YFP), N-terminal, kept
T1 sequence (looked up): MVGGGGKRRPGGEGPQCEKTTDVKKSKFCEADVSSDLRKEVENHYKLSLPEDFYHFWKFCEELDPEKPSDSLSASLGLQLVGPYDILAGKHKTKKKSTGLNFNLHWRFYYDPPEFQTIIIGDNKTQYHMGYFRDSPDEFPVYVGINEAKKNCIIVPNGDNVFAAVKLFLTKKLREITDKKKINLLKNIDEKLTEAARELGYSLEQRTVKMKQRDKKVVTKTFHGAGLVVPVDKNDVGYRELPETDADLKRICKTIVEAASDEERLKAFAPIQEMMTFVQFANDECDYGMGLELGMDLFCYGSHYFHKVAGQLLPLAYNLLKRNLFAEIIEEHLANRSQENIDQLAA

B1: CFP-PARP2 (mCerulean fused to the N-terminus of the PARP2 ART domain) (domain or fragment, human, UniProt Q9UGN5-1 356-583, looked up)
chain: HPLDQHYRNLHCALRPLDHESYEFKVISQYLQSTHAPTHSDYTMTLLDLFEVEKDGEKEAFREDLHNRMLLWHGSRMSNWVGILSHGLRIAPPEAPITGYMFGKGIYFADMSSKSANYCFASRLKNTGLLLLSEVALGQCNELLEANPKAEGLLQGKHSTKGLGKMAPSSAHFVTLNGSTVPLGPASDTGILNPDGYTLNYNEYIVYNPNQVRMRYLLKVQFNFLQLW
notes: Construct order: His6 tag-CFP-TEV protease site-ART domain; source: E. coli BL21(DE3), purified (Ni-NTA IMAC, SEC); not shown: mCerulean (CFP), N-terminal, kept
B2: unlabeled HPF1 (full length) (natural protein, UniProt Q9NWY4 1-346, looked up)
chain: T1 sequence (looked up)
notes: Histone PARylation Factor 1 (HPF1), full length, without fluorescent protein; also called unlabelled full length HPF1; desalted unlabeled HPF1

Assays:
[1] = molecular target: T2, PARP1 (Homo sapiens, UniProt P09874, DEL678-787); assay: biochemical; type: binding
T2 construct: PARP1 ART fragment [T661-F676 + GSGSGSGG + (D788-W1014)], CFP-fused; with HPF1
T2 sequence (P09874 788-1014, stated change not applied, other chains not shown): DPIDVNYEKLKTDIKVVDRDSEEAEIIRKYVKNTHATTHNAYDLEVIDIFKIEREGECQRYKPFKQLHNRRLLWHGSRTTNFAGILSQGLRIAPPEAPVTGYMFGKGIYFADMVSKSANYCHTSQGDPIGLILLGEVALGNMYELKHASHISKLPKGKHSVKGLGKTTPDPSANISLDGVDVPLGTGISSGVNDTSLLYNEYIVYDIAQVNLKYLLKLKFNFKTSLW

[2] = molecular target: T3, PARP2 (Homo sapiens, UniProt Q9UGN5); assay: FRET PARP2-HPF1 interaction inhibition (olaparib present); nanoDSF shift of the PARP2 ART domain ([…] to […] °C), none for HPF1; type: binding; parameters: PARP2 ART domain (CFP-fused in FRET); with HPF1
[3] = molecular target: T3, PARP2; details: cited from earlier work
[4] = molecular target: PARP1 ART (Homo sapiens) (UniProt P09874); details: cited from earlier work
Chain of PARP1 ART (Homo sapiens) (P09874 788-1014): as the sequence (P09874 788-1014, stated change not applied, other chains not shown) above

[5] = molecular target: T1, YFP-HPF1 (mCitrine fused to the …); assay: FRET or BRET; in solution; constant 400 nM CFP-PARP2 mixed with YFP-HPF1 250 nM to 10.5 µM, first mixed at high concentration in presence of Olaparib, salt backfilled; EmFRET by the method of Song et al.; 10 µl, 384-well plates, 4 replicates, 3 independent experiments; details: both partners purified
[6] = molecular target: B1; assay: FRET or BRET; competition of the FRET pair (CFP-PARP2, YFP-HPF1) with desalted (buffer-exchanged) unlabeled HPF1; rFRET read-out; HPF1 aggregated at high concentrations without salt; details: both partners purified
[7] = molecular target: B1; assay: FRET or BRET; competition of the FRET pair (400 nM CFP-PARP2, 800 nM YFP-HPF1) with increasing unlabeled HPF1 whose stock adds salt; rFRET read-out; apparent IC50; 20 µl, 384-well plates, 4 replicates; details: both partners purified

In the case of `CC(C)=CC[C@H](O)C1=CC(=O)c2c(O)ccc(O)c2C1=O` [Alkannin], the IC50 [1] is reported as 16.2 µM and the IC50 [2] is reported as 21.2 µM.

For `CC(C)=CC[C@@H](OC(=O)C=C(C)C)C1=CC(=O)c2c(O)ccc(O)c2C1=O` [Dimethylacrylshikonin], the IC50 [1] was 29.3 µM and the IC50 [2] was 15.7 µM.

In the case of HPF1 (from UniProt Q9NWY4), the Kd [3] is given as 3 µM and the Kd [4] is given as 1.5 µM.

For B1, the Kd [5] was 2 ± 0.18 µM.

Work on B2 yielded an IC50 [6] of 24 µM and an IC50 [7] of 1.5 µM.
